Results reported in article PMC10170197 (Open Biology, 2023).

Experiments:
[1] = molecular target: T1, G3BP1-NTF2 (residues 1–139) (UniProt Q13283 1-139); test: nanoDSF (thermal shift); G3BP1-NTF2 with 10 x molar excess of peptide, 4% DMSO; 25 mM Na-acetate pH 5.1, 150 mM NaCl, 10 mM MgCl2, 10% glycerol; details: both partners purified
T1 construct: G3BP1, NTF2-like domain, residues 1–139; Purified as a dimer; also called G3BP1-NTF2-WT; NTF2-WT; source: E. coli, purified (IMAC, Superdex 75 SEC, TEV cleavage, IMAC flow-through, SEC)

[2] = molecular target: T1, G3BP1-NTF2 (residues 1–139); test: nanoDSF (thermal shift); G3BP1-NTF2 with 10 x molar excess of peptide, 4% DMSO; neutral pH (7.4); buffers as for ITC; details: both partners purified
NTF2-H31YH62Y = molecular target: T2, NTF2-H31YH62Y (UniProt Q13283 1-139, H31Y | H62Y); test: nanoDSF (thermal shift); G3BP1-NTF2 with 10 x molar excess of peptide, 4% DMSO; 25 mM MES pH 6.1, 150 mM NaCl, 10 mM MgCl2, 10% glycerol; details: both partners purified
T2 construct: G3BP1 NTF2-like domain (limits as the G3BP1-NTF2 construct, residues 1–139) with H31Y and H62Y; also called G3BP1-NTF2-H31YH62Y

[3] = molecular target: T1, G3BP1-NTF2 (residues 1–139); test: as above; details: both partners purified
GFP-G3BP1-H31YH62Y = molecular target: T3, GFP-G3BP1-H31YH62Y (UniProt Q13283 1-466, H31Y | H62Y); test: co-IP; GFP-Trap/anti-GFP beads from lysates of U2OS ΔΔG3BP1/2 cells stably expressing GFP-G3BP1-WT or mutants; EE lysis buffer; Western blot for Caprin-1 and USP10; details: partners not purified
T3 construct: G3BP1, full length, fused to GFP; source: U2OS ΔΔG3BP1/2 cells, stably transfected, in lysate
T3 sequence (Q13283 whole entry H31Y/H62Y, the tested form may be a part): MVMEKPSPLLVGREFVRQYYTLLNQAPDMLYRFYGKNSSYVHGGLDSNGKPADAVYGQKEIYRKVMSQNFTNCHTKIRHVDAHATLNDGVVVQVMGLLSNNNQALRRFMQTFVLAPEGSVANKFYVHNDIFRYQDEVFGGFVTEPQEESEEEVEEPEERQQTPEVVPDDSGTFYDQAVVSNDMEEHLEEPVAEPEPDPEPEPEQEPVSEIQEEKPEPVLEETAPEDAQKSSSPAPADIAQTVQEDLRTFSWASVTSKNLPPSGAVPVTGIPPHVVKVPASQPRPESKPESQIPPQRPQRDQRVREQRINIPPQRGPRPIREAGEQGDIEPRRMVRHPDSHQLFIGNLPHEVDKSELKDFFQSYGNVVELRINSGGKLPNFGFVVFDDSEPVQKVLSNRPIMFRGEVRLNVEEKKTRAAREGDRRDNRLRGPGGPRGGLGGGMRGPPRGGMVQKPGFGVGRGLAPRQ

T1 sequence (Q13283 1-139): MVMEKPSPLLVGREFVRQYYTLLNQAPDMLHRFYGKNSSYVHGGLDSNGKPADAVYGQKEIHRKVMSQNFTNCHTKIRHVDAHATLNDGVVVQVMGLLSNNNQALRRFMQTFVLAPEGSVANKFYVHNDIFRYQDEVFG
T2 sequence (Q13283 1-139 H31Y/H62Y): as the sequence (Q13283 1-139) above, with H31Y, H62Y counted along it

Binder	ΔTm (ligand-binding-induced stabilization of NTF2) [1]	ΔTm (ligand-binding-induced stabilization of NTF2) [2]	binding result (NTF2-H31YH62Y)	ΔTm (ligand-binding-induced stabilization of NTF2) [3]	reduction of co-precipitated Caprin-1 relative to wild-type G3BP1 (GFP-G3BP1-H31YH62Y)
RQRVQDLMAQMQGPYNFIQDSMLDFENQTLD (Used for co-crystallisation and as peptide ligand in nanoDSF; also called Caprin-1-derived SLiM; source: synthetic peptide) [Caprin-1^356–386 peptide]	5.5 °C	3 °C	binds	2.5 °C	–
Caprin-1, endogenous in U2OS ΔΔG3BP1/2 cells (natural protein, human (endogenous in U2OS), UniProt Q14444 1-709, looked up, Caprin-1, endogenous protein detected by Western blot; source: endogenous, U2OS ΔΔG3BP1/2 lysate) MPSATSHSGSGSKSSGPPPPSGSSGSEAAAGAGAAAPASQHPATGTGAVQTEAMKQILGVIDKKLRNLEKKKGKLDDYQERMNKGERLNQDQLDAVSKYQEVTNNLEFAKELQRSFMALSQDIQKTIKKTARREQLMREEAEQKRLKTVLELQYVLDKLGDDEVRTDLKQGLNGVPILSEEELSLLDEFYKLVDPERDMSLRLNEQYEHASIHLWDLLEGKEKPVCGTTYKVLKEIVERVFQSNYFDSTHNHQNGLCEEEEAASAPAVEDQVPEAEPEPAEEYTEQSEVESTEYVNRQFMAETQFTSGEKEQVDEWTVETVEVVNSLQQQPQAASPSVPEPHSLTPVAQADPLVRRQRVQDLMAQMQGPYNFIQDSMLDFENQTLDPAIVSAQPMNPTQNMDMPQLVCPPVHSESRLAQPNQVPVQPEATQVPLVSSTSEGYTASQPLYQPSHATEQRPQKEPIDQIQATISLNTDQTTASSSLPAASQPQVFQAGTSKPLHSSGINVNAAPFQSMQTVFNMNAPVPPVNEPETLKQQNQYQASYNQSFSSQPHQVEQTELQQEQLQTVVGTYHGSPDQSHQVTGNHQQPPQQNTGFPRSNQPYYNSRGVSRGGSRGARGLMNGYRGPANGFRGGYDGYRPSFSNTPNSGYTQSQFSAPRDYSGYQRDGYQQNFKRGSGQSGPRGAPRGRGGPPRPNRGMPQMNTQQVN	–	–	–	–	~50%
